Test results as given in PMC2569942.

Biological target: prophagic Cu,Zn superoxide dismutase SodC-F1 of E. coli O157:H7 (soluble recombinant mature enzyme from pO157-ΔCys) (E. coli O157:H7 EDL933)
Assay: SEC

## prophagic Cu,Zn superoxide dismutase SodC-F1 of E. coli O157:H7 (soluble recombinant mature enzyme from pO157-ΔCys)
  stoichiometry N: 2
